The record followed here is the nanobody polyreactivity screen of Harvey et al. (2022).

This data set in a line: yeast display, Sf9 membrane polyspecificity reagent, FACS + sequencing; frameworks hold sequencing errors. The method, boiled down:
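Nanobodies from a synthetic yeast display library (Saccharomyces cerevisiae BJ5465), induced 36–48 hours with galactose, were stained 1 hour at 4 °C with 10% biotinylated, detergent-solubilized Sf9 membrane reagent, enriched on streptavidin microbeads, then FACS-sorted. Anti-HA (expression) and streptavidin (reagent binding) fluorescence set low and high (top ~1%) gates. Polyreactivity labels come from the gate of origin. Genes were colony-PCR amplified, MiSeq 2 × 250 sequenced and filtered by CDR length.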
On to “QVQLVESGGGLVQAGGSLRLSCAASGRILSSYAMGWYRKAPGKERELVAVISSGGNTYYADSVKGRFTISRDNAKNTVYLQMNSLKPEDTAVYYCAAVRHRQTYTKYNYWGQGTKVTVSS”, for which the “polyreactivity (PSR sort gate)” value is reported as “high polyreactivity”.
On to “QVQLVESGGGLVQAGGSLRLSCAASGRILSWYAMGWYRQAPGKVRELVAAIDSGGRTNYADSVKGRFTISRDNAKNTVYLQMNSLKPEDTAVYYCAKEGYWPRYWERYDYWGQGTQVTLSS”, for which the “polyreactivity (PSR sort gate)” value is recorded as “low polyreactivity”.
Under “QVQLVESGGGLVQAGGSLRLSCAASGRILSYYAMGWYRQAPGKERELVAAITRGGSTYYADSVKGRFTISRDNAKNTVYLQMNSLKPEDTAVYYCAARKKTTYRDWGRHDYWGQGTQVTVSS” stands “high polyreactivity”.
Then “QVQLVESGGGLVQAGGSLRLSCAASGRILSYYAMGWYRQAPGKETELVATISASGGSTYYADSVKGRFTISRDNAKNTVYLQMNSLKPEDTAVYYCAAARVPAYYLRYLYRTTYDYWGQGTQVTVSS”, with “high polyreactivity”; and “QVQLVESGGGLVQAGGSLRLSCAASGRILTNYVMGWYRQAPGKERELVAAITDSGGITYADSVKGRFTISRDNAKNTVYLQMNSLKPEDTAVYYCAAVRFFLYYFDFSAYDYWGQGTQVTVSS”, with “low polyreactivity”; and “QVQLVESGGGLVQAGGSLRLSCAASGRILTSNAMGWYRQAPGKERELVAAITYSGDSTYYADSVKGRFTISRDTAKNTVYLQMNSLKPEDTEVYYCAADVLKHFYSFGDERGFPFDYWGQGTQVTVSS”, with “low polyreactivity”.
Then “QVQLVESGGGLVQAGGSLRLSCAASGRILTTYAMGWYRQAPGKERELVAAITTIGGRTYYADSVKGRFTISRDNAKNTVYLQMNSLKPEDTAVYYCAADVYYEYDYWGQGTQVTVSS”, with “low polyreactivity”.
For the sequence “QVQLVESGGGLVQAGGSLRLSCAASGRILTYYAMGWYRQAPGKERELVASISSNGGTYYADSVKGRFTISRDNAKNTVYLQMNSLKPEDTAVYYCNAKRVARYQYGASYNYWGQGTQVTVSS”, the “polyreactivity (PSR sort gate)” value is “high polyreactivity”.
Under “QVQLVESGGGLVQAGGSLRLSCAASGRILVRYAMGWYRQAPGKERELVAAISSSGSSTYYADSVKGRFTISRYNAKNTVYLQMNSLKPEDTAVYYCAADWEYVFYEYGYWGQGTQVTVSS” stands “low polyreactivity”; under “QVQLVESGGGLVQAGGSLRLSCAASGRILVSYARGWYRQAPGKERELVAGITSGGDSTYYADSVKGRFTISRDNAKNTVYLQMNSLKPADTAVYSCAADRYGYRGRKNVRERYNYWGQGTQVTVSS”, “high polyreactivity”; under “QVQLVESGGGLVQAGGSLRLSCAASGRILVVNAMGWYRQAPGKERELVAAISTTGGRTYYADSVKGRFTISRDNAKNTDYLQMISLKPEDTAVYYCAKDDGRFGRTHEHDYWGHGTQVTVSS”, “high polyreactivity”.
Under “QVQLVESGGGLVQAGGSLRLSCAASGRILVVNAMGWYRQAPRKERELVAAISTTGGRTYYADSVKGRFTISRDNAKNTVYLQMKSLKPEDTAVYYCSKDDGRFGRTHEHDYWGHGTQVTVSS” stands “high polyreactivity”; under “QVQLVESGGGLVQAGGSLRLSCAASGRILWTYAMGWYRQAPGKERELVADISRTGSTNYADSVKGRFTISRDNAKNTVYLQMNSLKPEDTAVYYCNADYDRSRVYYSVELYDYWGQGTQVTVSS”, “low polyreactivity”.
Under “QVQLVESGGGLVQAGGSLRLSCAASGRILWYNAMGWYRQAPGKERELVAAINRGVSTNYADSVKGRFTISRDNAKNTVYLQMNSLKPEDTEVYYCAAVHDRLWYRSAYDYWRQGTQVTVSS” stands “low polyreactivity”; under “QVQLVESGGGLVQAGGSLRLSCAASGRILWYNAMGWYRQAPGKERELVAAITSDGSTDYADSVKGRFTISRDNAKNTVYLQMNSLKPEDTAVYYCAKLYIRQYPTWYRYYYWGQGTQVTVSS”, “high polyreactivity”; under “QVQLVESGGGLVQAGGSLRLSCAASGRILYLYTMGWYRQAPGKERELVAAISRGGSTYYADSVKGRFTISRDNAKNTVYLQMNSLKPEDTAVYSCAADARGYQFNYWGQGTQVTVSS”, “low polyreactivity”.
Turning to “QVQLVESGGGLVQAGGSLRLSCAASGRILYPYAMGWYRQAPGKERELVAAITFIGGTTYYADSVKGRFTLSRDNAKNTLYLQRNSLKQEDTAVYYCSTAGPYGSRNDYWGQGTQVTVSS”, the “polyreactivity (PSR sort gate)” value is “high polyreactivity”.
Then “QVQLVESGGGLVQAGGSLRLSCAASGRILYQYDMGWYRQAPGKERELVASISRSGGRTYYADSVKGRFTISRDNAKNTVYLQMNSLNPEDTAVYYCAAELTYFGYPIDFDSWGQGTQVSVSS”, with “low polyreactivity”.
On to “QVQLVESGGGLVQAGGSLRLSCAASGRILYRYVMGWYRQAPGKERELVAGISWSGGSTYYADSVKGRFTISRDNAKNTVYLQMNSLNPEDTAVYYCNKYIGALGRWGYDYWGQGTQVTVSS”, for which the “polyreactivity (PSR sort gate)” value is given as “low polyreactivity”.
Under “QVQLVESGGGLVQAGGSLRLSCAASGRILYSYAMGWYRQAPGKERELVAAISSTGSTYYADSVKGRFTISRDNAKNTVYLQMNSLKPEDTAVYYCAATFFPYQVHHYYYWGQGTQVTVSS” stands “low polyreactivity”.
Under “QVQLVESGGGLVQAGGSLRLSCAASGRILYVYVMGWYRQGPGKASELVAAISRRGGGTSYADSVKGLFTISRDNAKNTVYLQLNSLKPEDTTVYYCAASSTEFPTDYLAIDDYWGQGTQVTVSS” stands “low polyreactivity”; under “QVQLVESGGGLVQAGGSLRLSCAASGRILYYYAMGWYRQAPGKERELVAAINSSGGSTYYADSVKGRFTISRDNAKNTVYLQMNSLKPEDTAVYYCAALRGIVLWYPPSYFRYDYWGQGTQVTVSS”, “high polyreactivity”.
Consider “QVQLVESGGGLVQAGGSLRLSCAASGRILYYYAMGWYRQAPGKERELVAAINSSGGSTYYADSVKGRFTISRDNAKNTVYLQMNSLKPEDTAVYYCAALRGNVLWYPPSYFRYDYWGQGTQVTVSS”, for which the “polyreactivity (PSR sort gate)” value is reported as “high polyreactivity”.
Under “QVQLVESGGGLVQAGGSLRLSCAASGRIMPFYAMGWYRQAPGKERELVATISWTSDSTYYADSVKGRFTISRDNAKNTVFLQMNSLKPEDTAVYYCAREYTYTYASTVIYDHWGQGTQVTVSS” stands “low polyreactivity”.
Under “QVQLVESGGGLVQAGGSLRLSCAASGRINEYYAMGWYRQAPGKERELVAAISSGGSTYYADSVKGRFTISRDNAKNTVYFQMNSLKPEDTAVYYCAAVYSSYGRRYNSWGQGTQVTVSS” stands “high polyreactivity”; under “QVQLVESGGGLVQAGGSLRLSCAASGRIRGNVMGWYRQAPGKERELVAAISKSGGSTYYADSVKGRFTISRDNAKNTVYLQMNSLKPEDTAVYYCAAAYGQYTSYYRFGSWGQGTQVTVSS”, “high polyreactivity”.
Under “QVQLVESGGGLVQAGGSLRLSCAASGRISGVNAMGWYRQAPGKERELVATISGSGGRTYYADSVKGRFTISRDNAKNTVYLQMNSLKPEDTAVYYCNTLVQRGGYFSRRFDYWGQGTQVTVSS” stands “low polyreactivity”; under “QVQLVESGGGLVQAGGSLRLSCAASGRISGYNMGWYRQAPGKERELVAAISNGGSTNYADSVKGRFTISRDNAKNTVYLQMNSLKPEDTAVYYCNRRVPYSFYSRGYYYWGQGTQVTVSS”, “high polyreactivity”.
Consider “QVQLVESGGGLVQAGGSLRLSCAASGRISPKNAMGWYRQAPGKERELVATIRKIGGRTYYADSVKGRFTISRDNAKNTVYLQMNSLKPEDTAVYYCATDFAPSYYPDRFDYRGQGTQVTVSS”, for which the “polyreactivity (PSR sort gate)” value is given as “low polyreactivity”.
For “QVQLVESGGGLVQAGGSLRLSCAASGRISPKNAMGWYRQAPGKERELVATIRKIGGRTYYADSVKGRFTISRDNAKNTVYLQMNSLKPEDTAVYYCATDFAPSYYPDRFDYWGQGTQVTVSW”, the “polyreactivity (PSR sort gate)” value is given as “low polyreactivity”.
